Reference: patent publication US20080267971A1 (published 2008)

T1: human Ang-2 V345M (human, UniProt O15123 19-496)
T1 sequence: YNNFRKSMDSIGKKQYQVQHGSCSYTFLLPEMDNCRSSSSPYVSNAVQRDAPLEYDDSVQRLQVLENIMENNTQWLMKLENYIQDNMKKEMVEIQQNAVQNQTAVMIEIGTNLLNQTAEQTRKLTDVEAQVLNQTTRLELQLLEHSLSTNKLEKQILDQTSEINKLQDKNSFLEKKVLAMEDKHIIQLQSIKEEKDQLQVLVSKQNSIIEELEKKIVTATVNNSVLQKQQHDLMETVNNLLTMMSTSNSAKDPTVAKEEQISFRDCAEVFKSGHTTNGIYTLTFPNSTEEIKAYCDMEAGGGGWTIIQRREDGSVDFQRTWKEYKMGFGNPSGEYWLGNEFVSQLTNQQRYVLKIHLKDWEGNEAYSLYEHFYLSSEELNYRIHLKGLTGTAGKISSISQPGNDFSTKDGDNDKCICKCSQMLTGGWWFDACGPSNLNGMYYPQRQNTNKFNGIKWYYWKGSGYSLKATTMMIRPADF

T2: Mouse/Human chimeric Ang-2 with the human StuI-TfiI fragment (mouse/human chimera, UniProt O35608 19-496)
T2 construct: also called Stu-Tfil 310-400
T2 chain: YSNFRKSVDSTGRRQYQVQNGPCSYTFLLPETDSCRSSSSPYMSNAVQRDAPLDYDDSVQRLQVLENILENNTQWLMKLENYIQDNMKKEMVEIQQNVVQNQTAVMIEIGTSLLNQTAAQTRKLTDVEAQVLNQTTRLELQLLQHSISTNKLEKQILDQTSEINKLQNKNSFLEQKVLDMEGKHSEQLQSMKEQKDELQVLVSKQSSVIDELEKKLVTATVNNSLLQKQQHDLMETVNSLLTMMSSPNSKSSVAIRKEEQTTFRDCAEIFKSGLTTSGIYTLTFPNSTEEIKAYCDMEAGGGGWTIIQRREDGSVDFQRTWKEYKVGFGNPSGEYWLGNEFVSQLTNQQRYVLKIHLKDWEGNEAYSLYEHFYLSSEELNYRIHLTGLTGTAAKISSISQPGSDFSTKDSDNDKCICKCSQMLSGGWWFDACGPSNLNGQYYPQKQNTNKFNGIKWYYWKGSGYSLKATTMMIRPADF

T3: Mouse/Human Ang-2 StuI chimeric molecule (mouse; human, UniProt O35608 19-496)
T3 construct: also called M/H Stul 310-496
T3 chain: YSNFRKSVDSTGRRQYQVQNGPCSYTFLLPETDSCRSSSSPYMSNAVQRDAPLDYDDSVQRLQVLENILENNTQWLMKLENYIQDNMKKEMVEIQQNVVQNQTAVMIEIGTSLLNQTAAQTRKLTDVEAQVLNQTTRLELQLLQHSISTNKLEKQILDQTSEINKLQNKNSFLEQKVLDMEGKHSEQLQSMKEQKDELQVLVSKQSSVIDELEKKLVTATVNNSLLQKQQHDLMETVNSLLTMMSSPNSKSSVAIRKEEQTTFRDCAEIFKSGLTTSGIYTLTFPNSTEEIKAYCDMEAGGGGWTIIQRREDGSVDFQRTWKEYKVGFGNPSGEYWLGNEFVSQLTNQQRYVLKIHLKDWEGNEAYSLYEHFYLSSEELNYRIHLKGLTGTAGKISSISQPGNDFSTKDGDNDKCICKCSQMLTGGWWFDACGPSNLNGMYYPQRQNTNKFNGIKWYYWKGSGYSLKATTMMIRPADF

T4: human Angiopoietin-1 (human, UniProt Q15389 20-498, limits assumed)
T4 construct: Bought recombinant protein (R&D Systems 293-AN-025/CF) or supernatant of transfected 293F cells; also called Ang-1; recombinant Ang-1
T4 sequence: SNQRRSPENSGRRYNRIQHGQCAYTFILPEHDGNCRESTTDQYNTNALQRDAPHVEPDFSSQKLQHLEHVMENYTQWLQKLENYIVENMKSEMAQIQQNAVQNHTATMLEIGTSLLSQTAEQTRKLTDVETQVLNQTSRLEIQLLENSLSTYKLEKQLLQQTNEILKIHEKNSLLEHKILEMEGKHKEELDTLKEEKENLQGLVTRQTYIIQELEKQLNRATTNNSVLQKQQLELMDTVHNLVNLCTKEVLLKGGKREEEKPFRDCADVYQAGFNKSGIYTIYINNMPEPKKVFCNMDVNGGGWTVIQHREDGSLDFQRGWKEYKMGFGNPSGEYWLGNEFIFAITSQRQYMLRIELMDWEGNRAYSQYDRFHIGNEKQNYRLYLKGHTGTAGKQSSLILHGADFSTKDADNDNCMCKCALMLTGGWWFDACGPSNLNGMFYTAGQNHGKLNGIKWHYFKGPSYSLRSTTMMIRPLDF

T5: human Angiopoietin-2 (human, UniProt O15123 19-496)
T5 construct: Mostly bought recombinant protein (R&D Systems 623-AM/CF, 623-AN; biotinylated BT623) or supernatant of transfected 293F cells; also called Ang-2; rhAng-2
T5 sequence: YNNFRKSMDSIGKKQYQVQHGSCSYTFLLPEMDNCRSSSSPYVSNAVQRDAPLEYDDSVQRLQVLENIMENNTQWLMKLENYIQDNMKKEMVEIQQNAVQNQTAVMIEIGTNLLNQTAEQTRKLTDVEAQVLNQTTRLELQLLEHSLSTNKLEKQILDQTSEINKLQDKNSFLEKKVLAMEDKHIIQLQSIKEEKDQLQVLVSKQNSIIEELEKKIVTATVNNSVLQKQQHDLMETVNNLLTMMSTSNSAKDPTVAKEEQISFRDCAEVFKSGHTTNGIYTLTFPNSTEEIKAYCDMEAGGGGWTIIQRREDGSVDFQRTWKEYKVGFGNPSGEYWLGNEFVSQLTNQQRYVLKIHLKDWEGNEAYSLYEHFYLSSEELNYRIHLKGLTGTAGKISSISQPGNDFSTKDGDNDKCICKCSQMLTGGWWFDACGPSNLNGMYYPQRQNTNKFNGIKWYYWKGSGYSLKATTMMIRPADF


Key:
human Ang-2 V345M = molecular target: T1, human Ang-2 V345M; assay: ELISA
[1] = molecular target: T2, Mouse/Human chimeric Ang-2 with the …; assay: ELISA
[2] = molecular target: T3, Mouse/Human Ang-2 StuI chimeric molecule; assay: ELISA
human Angiopoietin-1 = molecular target: T4, human Angiopoietin-1; assay: capture ELISA
Experimental: The binding of the top 27 human monoclonal antibodies was detected with a HRP-conjugated goat anti-human antibody, followed by colorimetric horseradish peroxidase substrate (Enhanced K-Blue TMB substrate Neogen Corporation). The absorbance of each well of the ELISA plates was measured at 450 nm on a microplate autoreader.

human Angiopoietin-2 = molecular target: T5, human Angiopoietin-2; assay: Biacore; kd held constant (*)
Experimental: The label-free surface plasmon resonance (SPR), or Biacore, was utilized to measure the antibody affinity to the antigen. For this purpose, a high-density goat anti-human antibody surface over a CM5 Biacore chip was prepared using routine amine coupling. All the purified mAbs were diluted to approximately 8 μg/ml in HBS-P running buffer containing 100 μg/ml BSA and 10 mg/mL carboxymethyldextran. Each mAb was captured on a separate surface using a 42-second contact time, and a 5-minute wash for stabilization of the mAb baseline.
Data were fit globally to a 1:1 interaction model to determine the binding kinetics.

Row | % of binding to human Ang-2 (human Ang-2 V345M) | % of binding to human Ang-2 [1] | % of binding to human Ang-2 [2] | binding result (human Angiopoietin-1) | koff (human Angiopoietin-2) | Binder
1 | 100% | 23% | 100% | no binding |  | mAb 5.86.1 (antibody, V domains shown, Human hybridoma IgG (XenoMouse); also called x5.86) VH: QVQLVQSGAEVKKPGASVKVSCKASGYTFTGYHMYWVRQAPGQGLEWLGWINPNSGGTNYAQKFQGRVTMTRDTSISTAYMELSRLRSDDTAVYYCVRDQGIAAAGPFDYWCQGTLVTVSS VL: DIRMTQSPSSLSASVGDRVTITCRASQRISTYLNWYQQKPGKAPKFLIYAASSLQSGVPSRFSGSGSGTDFTLTISSLQPEDFATYYCQQSYTTPFTFGPGTKVDIKR
2 | 100% |  | 100% | no binding | ≤ 1e-05 s⁻¹ | mAb 5.103.1 (antibody, V domains shown, Human hybridoma IgG (XenoMouse); also called 5.103.3; x5.103) VH: QVQLVQSGAEVKKPGASVKVSCKASGYTFTGYYLYWVPQAPGQGLEWMGWISPNSGGTNYAQKFQGRVTMTRDTSISTAYMELSRLRSDDTAVYYCARDQVIAVAGPFDYWAQGTLVTVSS VL: not shown
3 | 100% | 86% | 100% | no binding | ≤ 1e-05 s⁻¹ | mAb 5.83.1 (antibody, V domains shown, Human hybridoma IgG (XenoMouse); also called x5.83) VH: not shown VL: EIVMTQSPATLSVSPGERATLSCRASQSLISNLAWYQQKPGQAPRLLIFGASTRATGIPARFSGSGSGTEFTLTISSLQSEDFAVYYCHQYNNWWTFGQGTKVEIKR
4 | 100% | 20% | 100% | no binding | ≤ 1e-05 s⁻¹ | mAb 5.88.3 (antibody, V domains shown, Human hybridoma IgG (XenoMouse); also called x5.88) VH: EVQMVESGGGLVQPGGSLRLSCAASGFTLRSYWMSWVRQAPGKGLEWVANIKEDGSEKYHVDSVKGRFTISRDNAENSLFLQMSSLRAEDTAVYYCARDMEASAGLFDYWGQGTLVTVSS VL: EIVMTQSPATLSVSPGERAILSCRASQSISSNLAWYQQKPGQAPRLLIYGASTRATGIPARFSGSGSGTEFTLTISSLQSEDFAVYYCQQYNYWWTFGQGTKVEIKR
5 | 100% |  |  | no binding | ≤ 1e-05 s⁻¹ | mAb 3.31.2 (antibody, V domains shown, Human hybridoma IgG (XenoMouse); also called x3.31) VH: EVQLVESGGGLVQPGGSLRLSCAASGFTFSSYWMSWVRQAPGKGLEWVANIKQDGSDKYYVDSVKGRFTISRDNAKNSLYLRMNSLRAEDTAVFYCARDMGSGWFDYWGQGTLVTVSS VL: EVVMTQSPATLSVSPGERATLSCRASQSVGSNLAWYQQKPGQAPRLLIYGASTRATGIPARFSGSGSGTEFTLTISSLQSEDFAVYCCQQYNHWWTFGQGTKVEIKR
6 | 100% | 15% | 100% |  | ≤ 1e-05 s⁻¹ | mAb 3.3.2 (antibody, V domains shown, Human hybridoma IgG (XenoMouse); also called 3.3.1; x3.3) VH: EVQLVESGGGLVQPGGSLRLSCAVSGFTFSSYWMSWVRQAPGKGLEWVANIKQDGSEKYYVDSVKGRFTISRDNAKNSLYLQMNSLRAEDTAVYYCARDQGIAVAGPFDYWGQGTLVTVSS VL: EIVMTQSPATLSVSPGERATLSCRASQTVSSDLAWYQQKPGQAPRLLIYGASIRATGIPARFSGSGSGTEFTLTISSLQSEDFAVYSCQQYYNWWTFGQGTKVEIKR
7 | 100% | 28% | 100% | no binding |  | mAb 5.101.1 (antibody, V domains shown, Human hybridoma IgG (XenoMouse); also called x5.101) VH: not shown VL: EIVMTQSPATLSVSPGERATLSCRASQSLISNLAWYQQKPGQAPRLLIFGASTRATGIPARFSGSGSGTEFTLTISSLQSEDFAVYYCHQYNNWWTFGQGTKVEIKR
8 | 100% | 77% | 100% | no binding | ≤ 1e-05 s⁻¹ | mAb 5.54.1 (antibody, V domains shown, Human hybridoma IgG (XenoMouse); also called x5.54) VH: not shown VL: EIVMTQSPATLSVSPGERATLSCRASQSLISNLAWYQQKPGQAPRLLIFGASTRATGIPARFSGSGSGTEFTLTISSLQSEDFAIYYCHQYNNWWTFGQGTKVEIKR
9 | 100% | 100% | 100% |  | ≤ 1e-05 s⁻¹ | mAb 3.19.3 (antibody, V domains shown, Human hybridoma IgG (XenoMouse); also called x3.19) VH: QVQLVESGGGVVQPGRSLRLSCAASGFTFTNYGMHWGRQAPGKGLEWVAVISHDGNNKYYVDSVKGRFTISRDNSKNTLYLQMNSLRAEDTAVYYCAREGIDFWSGLNWFDPWGQGTLVTVSS VL: EIVLTQSPGTLSLSPGERATLSCRASQSITGSYLAWYQQKPGQAPRLLICGASSWATGIPDRFSGSGSGTDFTLTISRLEPEDFAVYYCQQYSSSPITFGQGTRLEIKR
10 | 100% | 100% | 100% |  |  | mAb 5.52.1 (antibody, V domains shown, Human hybridoma IgG (XenoMouse); the line 5.52 has entries of its own (347, 349; light chain L2) that differ from the clone 5.52.1 (L5); also called x5.52) VH: QVQLVESGGGVVQPGRSLRLSCAASGFTFSSYGMHWVRQAPGKGLEWVAVRWYDESNKYYADSVKGRFTISRDNSKNTLYLQMNSLRAEDTAVYYCARDPFETGTTFDYWGQGTLVTVSS VL: DIQMTQSPSSVSASVGDRVTITCRASQGISSWLAWYQQKPGKAPKLLIYAVSSLESGVPSRFSGSGSGTDFTLTISSLQPEDFATYYCQQALTFGGGTKVEIKR
